Holding throughout (settings): both partners purified
One experiment addresses T1, Kap114p wild type (S. cerevisiae, UniProt P53067 1-1004).
T1 construct: Kap114p (karyopherin-β), S. cerevisiae, full length, amplified from total genomic DNA; GST tag followed by a PreScission site (modified pGEX6p1); PreScission protease added during dialysis; also called Kap114p WT; GST-Kap114p (plasmid pGEX-6P-1-Kap114); source: E. coli Rosetta, purified (GST resin, MonoQ, Superdex 200)
T1 sequence (looked up): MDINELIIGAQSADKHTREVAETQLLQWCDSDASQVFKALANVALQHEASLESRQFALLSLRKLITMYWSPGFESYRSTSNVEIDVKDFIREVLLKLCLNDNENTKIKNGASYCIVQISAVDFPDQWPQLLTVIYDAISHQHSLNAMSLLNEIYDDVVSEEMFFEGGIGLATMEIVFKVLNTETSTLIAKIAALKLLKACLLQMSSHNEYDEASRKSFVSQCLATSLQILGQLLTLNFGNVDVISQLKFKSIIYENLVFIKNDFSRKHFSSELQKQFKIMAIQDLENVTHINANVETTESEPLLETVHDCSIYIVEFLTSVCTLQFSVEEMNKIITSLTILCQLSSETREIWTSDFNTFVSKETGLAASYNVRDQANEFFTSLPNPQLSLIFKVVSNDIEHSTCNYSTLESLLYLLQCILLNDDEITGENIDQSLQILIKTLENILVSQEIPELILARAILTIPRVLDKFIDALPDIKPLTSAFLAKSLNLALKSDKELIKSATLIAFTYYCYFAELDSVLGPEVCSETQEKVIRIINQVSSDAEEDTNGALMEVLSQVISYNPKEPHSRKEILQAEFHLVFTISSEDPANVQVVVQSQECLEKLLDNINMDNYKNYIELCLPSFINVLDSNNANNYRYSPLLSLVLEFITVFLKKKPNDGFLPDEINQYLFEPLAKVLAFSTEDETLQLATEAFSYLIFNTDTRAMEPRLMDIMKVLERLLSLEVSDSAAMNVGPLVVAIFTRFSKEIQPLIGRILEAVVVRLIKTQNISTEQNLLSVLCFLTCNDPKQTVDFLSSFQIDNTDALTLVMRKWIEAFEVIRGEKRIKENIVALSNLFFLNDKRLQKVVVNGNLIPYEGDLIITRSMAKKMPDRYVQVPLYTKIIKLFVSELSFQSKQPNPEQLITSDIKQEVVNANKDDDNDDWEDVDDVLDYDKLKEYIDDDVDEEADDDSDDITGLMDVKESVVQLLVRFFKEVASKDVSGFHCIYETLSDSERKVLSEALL
The experiment is described as follows: ITC; MicroCal iTC200, 25 °C, 20 mM HEPES pH 7.4, 150 mM NaCl; high concentration: 50 µM wild type or mutant Kap114p in the sample cell, 500 µM wild type or mutant yTBPC in the syringe; triplicate.

In another experiment the target is T2, Kap95p (S. cerevisiae, UniProt Q06142 1-861).
T2 construct: Kap95p, S. cerevisiae, full length; The purification paragraph is headed for Kap114p proteins; that Kap95p was treated alike is surmised; source: E. coli, GST-tagged construct in modified pGEX6p1; purification told for the GST-tagged proteins; not shown: GST, N-terminal, cleaved
T2 sequence (looked up): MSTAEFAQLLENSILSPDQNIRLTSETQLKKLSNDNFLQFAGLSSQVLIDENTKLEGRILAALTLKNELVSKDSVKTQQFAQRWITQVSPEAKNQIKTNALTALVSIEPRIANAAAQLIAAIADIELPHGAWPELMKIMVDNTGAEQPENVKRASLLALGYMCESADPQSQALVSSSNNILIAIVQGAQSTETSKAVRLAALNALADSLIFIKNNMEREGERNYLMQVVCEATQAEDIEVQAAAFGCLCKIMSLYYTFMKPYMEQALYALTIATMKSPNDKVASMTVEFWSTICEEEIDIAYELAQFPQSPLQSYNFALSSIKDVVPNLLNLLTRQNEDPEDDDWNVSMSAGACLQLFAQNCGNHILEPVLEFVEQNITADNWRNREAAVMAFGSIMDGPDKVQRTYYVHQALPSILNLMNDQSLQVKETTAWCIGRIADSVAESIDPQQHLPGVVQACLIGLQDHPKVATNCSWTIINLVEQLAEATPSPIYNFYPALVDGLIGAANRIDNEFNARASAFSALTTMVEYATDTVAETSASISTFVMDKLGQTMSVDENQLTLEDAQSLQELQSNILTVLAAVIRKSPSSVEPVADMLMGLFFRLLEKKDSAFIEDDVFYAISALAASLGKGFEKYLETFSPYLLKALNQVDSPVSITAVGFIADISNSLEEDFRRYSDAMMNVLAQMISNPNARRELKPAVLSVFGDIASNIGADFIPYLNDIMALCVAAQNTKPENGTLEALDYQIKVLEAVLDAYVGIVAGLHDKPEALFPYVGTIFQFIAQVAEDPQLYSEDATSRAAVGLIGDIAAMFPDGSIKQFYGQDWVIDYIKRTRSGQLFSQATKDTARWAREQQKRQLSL
The experiment is described as follows: ITC; Kap95p with wild type or R141A yTBP^C; which protein was in the cell is not told for Kap95p; n = 3.

The target of another experiment is T3, Kap114p (wild type) (S. cerevisiae, UniProt P53067 1-1004).
T3 construct: Kap114p, S. cerevisiae, full length, amplified from total genomic DNA; GST tag removed with PreScission protease; also called karyopherin-β Kap114p; source: E. coli Rosetta, purified (GST resin, MonoQ, Superdex 200); not shown: GST, N-terminal, cleaved
T3 sequence (looked up): T1 sequence (looked up)
As to the kind of experiment: ITC; MicroCal iTC200, 25 °C, 20 mM HEPES pH 7.4, 150 mM NaCl; 25 or 50 μM wild type or mutant Kap114p in the cell, 250 or 500 μM wild-type or mutant yTBP^C in the syringe; triplicate.

The next experiment deals with T4, Kap114p(Y370A) (S. cerevisiae, UniProt P53067 1-1004, Y370A).
T4 construct: Kap114p, S. cerevisiae, full length, point mutant Y370A; source: E. coli Rosetta, purified (GST resin, MonoQ, Superdex 200); not shown: GST, N-terminal, cleaved
T4 sequence (looked up): T1 sequence (looked up) with Y370A
The description is as above.

Experiment [1] addresses T5, Kap114p (Q597A) (S. cerevisiae, UniProt P53067 1-1004, Q597A).
T5 construct: Kap114p, S. cerevisiae, full length with Q597A; also called GST-Kap114p (Q597); source: E. coli Rosetta, purified (GST resin, MonoQ, Superdex 200)
T5 sequence (looked up): T1 sequence (looked up) with Q597A
The experiment is described as follows: ITC; MicroCal iTC200, 25 °C, 20 mM HEPES pH 7.4, 150 mM NaCl; low concentration: 25 µM wild type or mutant Kap114p in the sample cell, 250 µM wild type or mutant yTBPC in the syringe; triplicate.

In experiment [2] the target is T5, Kap114p (Q597A). The experiment is described as follows: ITC; MicroCal iTC200, 25 °C, 20 mM HEPES pH 7.4, 150 mM NaCl; high concentration: 50 µM wild type or mutant Kap114p in the sample cell, 500 µM wild type or mutant yTBPC in the syringe; triplicate.
The next experiment concerns the target T6, Kap114p (Y370A) (S. cerevisiae, UniProt P53067 1-1004, Y370A).
T6 construct: Kap114p, S. cerevisiae, full length with Y370A; also called GST-Kap114p (Y370A); source: E. coli Rosetta, purified (GST resin, MonoQ, Superdex 200)
T6 sequence (looked up): T1 sequence (looked up) with Y370A
As to the kind of experiment: ITC; MicroCal iTC200, 25 °C, 20 mM HEPES pH 7.4, 150 mM NaCl; low concentration: 25 µM wild type or mutant Kap114p in the sample cell, 250 µM wild type or mutant yTBPC in the syringe; triplicate.

Substitutions are numbered along the chain they refer to. Names and notes keep the numbering of the source. Where only a bound is given, the exact number is not on record here.

B1: yTBP^C (K145A) (domain or fragment, S. cerevisiae, UniProt P13393 61-240, looked up)
chain: SGIVPTLQNIVATVTLGCRLDLKTVALHARNAEYNPKRFAAVIMRIREPKTTALIFASGKMVVTGAKSEDDSKLASRKYARIIQAIGFAAKFTDFKIQNIVGSCDVKFPIRLEGLAFSHGTFSSYEPELFPGLIYRMVKPKIVLLIFVSGKIVLTGAKQREEIYQAFEAIYPVLSEFRKM
notes: also called yTBP(K145A); pET28a-Spt15 (61-240) (K145A); source: E. coli Rosetta, purified (Ni-NTA, HiTrap SP, Superdex 75); not shown: His6, N-terminal, cleaved
As to B1, the Kd with Kap114p wild type came to 238 nM.

B2: yTBP^C (R141A) (domain or fragment, S. cerevisiae, UniProt P13393 61-240, looked up)
chain: B1 chain with R81A, A85K
notes: 61-240, point mutant R141A; also called yTBP(R141A); source: E. coli Rosetta, purified (Ni-NTA, HiTrap SP, Superdex 75); not shown: His6, N-terminal, cleaved
The molecule B2 displayed a Kd in the experiment with Kap95p of about 9700 nM. In addition, in the experiment with Kap114p (wild type), the “fold reduction of the binding affinity against wild type yTBP^C” value is over 200 fold.

B3: yTBP^C (N91A) (domain or fragment, S. cerevisiae, UniProt P13393 61-240, looked up)
chain: B1 chain with N31A, A85K
notes: 61-240, point mutant N91A; also called yTBP(N91A); source: E. coli Rosetta, purified (Ni-NTA, HiTrap SP, Superdex 75); not shown: His6, N-terminal, cleaved
Regarding B3, the Kd with Kap114p(Y370A) was about 1500 nM.

B4: yTBP^C (R141A) (domain or fragment, S. cerevisiae, UniProt P13393 61-240, looked up)
chain: B1 chain with R81A, A85K
notes: also called yTBP(R141A); His-yTBP (61-240) (R141A); source: E. coli Rosetta, purified (Ni-NTA, HiTrap SP, Superdex 75); not shown: His6, N-terminal, cleaved
B4: the Kd was 165 nM in the experiment with Kap114p (Q597A) [1], 255 nM with Kap114p wild type and 316 nM in the experiment with Kap114p (Q597A) [2].

B5: yTBP^C (N91A) (domain or fragment, S. cerevisiae, UniProt P13393 61-240, looked up)
chain: B1 chain with N31A, A85K
notes: also called yTBP(N91A); His-yTBP (61-240) (N91A); source: E. coli Rosetta, purified (Ni-NTA, HiTrap SP, Superdex 75); not shown: His6, N-terminal, cleaved
Regarding B5, the equilibrium dissociation constant (Kd) was determined as 938 nM with Kap114p (Y370A) and 28.9 nM with Kap114p wild type.
